The target in experiment [1] is biotin-nup42^408–424 peptide (S. cerevisiae) (UniProt P49686). In words: BLI.
Experiment [2] addresses T1, GST-nup42-CTD/MBP-gle1-CTD^H337R/dbp5^L327V trimeric complex (Saccharomyces cerevisiae, UniProt P20449+Q12315, P20449:L327V/Q12315:H337R).
T1 sequence (Q12315 244-538 H337R): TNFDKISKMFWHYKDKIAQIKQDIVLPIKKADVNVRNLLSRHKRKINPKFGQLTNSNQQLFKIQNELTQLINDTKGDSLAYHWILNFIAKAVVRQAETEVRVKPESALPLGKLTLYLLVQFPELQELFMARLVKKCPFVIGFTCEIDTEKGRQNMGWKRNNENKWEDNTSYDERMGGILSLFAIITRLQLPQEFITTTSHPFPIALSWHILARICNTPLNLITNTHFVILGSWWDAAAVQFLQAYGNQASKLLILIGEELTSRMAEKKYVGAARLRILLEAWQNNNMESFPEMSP
T1 sequence (P20449 1-482 L327V): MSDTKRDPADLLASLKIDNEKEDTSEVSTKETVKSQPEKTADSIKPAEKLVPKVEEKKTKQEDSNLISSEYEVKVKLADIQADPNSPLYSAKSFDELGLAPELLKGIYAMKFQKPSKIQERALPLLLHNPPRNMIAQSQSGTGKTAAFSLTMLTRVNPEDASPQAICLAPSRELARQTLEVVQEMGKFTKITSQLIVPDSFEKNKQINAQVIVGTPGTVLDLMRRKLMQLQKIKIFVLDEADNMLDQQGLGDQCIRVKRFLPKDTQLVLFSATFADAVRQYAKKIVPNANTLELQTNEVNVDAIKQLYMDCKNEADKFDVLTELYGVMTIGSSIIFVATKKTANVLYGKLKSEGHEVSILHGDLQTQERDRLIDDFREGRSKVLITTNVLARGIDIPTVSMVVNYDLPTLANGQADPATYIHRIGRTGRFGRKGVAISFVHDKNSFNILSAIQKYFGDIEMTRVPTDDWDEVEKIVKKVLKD
T1 sequence (P49686 365-430 partner): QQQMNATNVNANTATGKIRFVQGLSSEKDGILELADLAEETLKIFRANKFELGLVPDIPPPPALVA
In words: GST pull-down, IP6-dependent complex formation. Type of experiment: binding. The settings on record: 50 uM IP6, pH 7.5, 4 C; indirect read-out by complex formation.

As for “MBP-gle1-CTD (from UniProt Q12315 1-538) (domain or fragment)”, in experiment [1], the Kd was determined as 91.5 nM. As for `O=P(O)(O)O[C@H]1[C@H](OP(=O)(O)O)[C@@H](OP(=O)(O)O)[C@H](OP(=O)(O)O)[C@@H](OP(=O)(O)O)[C@H]1OP(=O)(O)O` [IP6], the “GST pull-down, IP6-dependent complex formation (SDS-PAGE)” value in experiment [2] was “complex was observed only in the presence of IP6”.

Turning to “MBP-gle1-CTD^QKEE>AAAA (from UniProt Q12315 1-538) (domain or fragment)”, the dissociation constant (Kd) in experiment [1] is 599 nM.

Usually Kd stands for the concentration at which binding is half-saturated.

(Values after PMC5677552 (Traffic (Copenhagen, Denmark), 2017).)
